These results are taken from patent US20250197923.

Series [1] has as its system BD009-SDpol-1 (synthetic construct). The note with it: RT-LAMP time at 10000 copies RNA; 7 mM MgSO4, 50 mM KCl, pH 8.8; 18.6 min at 10 copies.
The test system of series [2] is Bst 2.0. The note with it: RT-LAMP time at 10000 copies RNA; 8 mM MgSO4, 50 mM KCl, pH 8.8; none at 100 copies.

In the case of SARS-CoV-2 gene N LAMP target, the values for the activity in series [1] and in series [2] were 8.7 min and 30 min, respectively.
